The values that follow come from patent US20070118934A1.

In assay [1] the target is human rhinovirus serotype HRV-39. The experiment in a line: cell-based or functional assay.
For assay [2] the target is unchanged.
The target of assay [3] is mouse (anti-human ICAM) monoclonal antibody.

For “IC1-5D/IgA (ICAM/IgA fusion, gift of Dr. Tim Springer; Martin et al. 1993) (from UniProt P05362 28-480; P01876 103-353) (Fc fusion)”, in assay [1], the IC50, cytopathic effect (CPE) assay, HRV-39 on HeLa S3 cells was determined as 0.12 µg/mL and the fold lower IC50 than soluble ICAM-1, CPE assay was found to be 11.3 fold.
In assay [2], ICAM-IgA (Fc fusion) returned an IC50 (read off the curve) of 3 nM.
For the substance “soluble human ICAM-1 (from UniProt P05362 28-480) (receptor)”, in assay [1], the IC50, cytopathic effect (CPE) assay, HRV-39 on HeLa S3 cells stood at 1.35 µg/mL. Further, the IC50 (read off the curve) worked out at 40 nM in assay [2] and 0.8 µg/mL in assay [3].
